In US20250270341A1 (Alector, published 2025):
Where a chain is given by its changes, count along the chain named. Values belong to the binder of their own block, whether it stands above or below them.

Legend:
[1] = target: T1, Full length mouse CD98hc on CHO cells (mouse, UniProt P10852 1-526); experiment: FACS, hybridoma supernatant
T1 construct: CHO cells stably overexpressing it; also called CHO-mouse CD98hc; CHO-mCD98hc
T1 sequence: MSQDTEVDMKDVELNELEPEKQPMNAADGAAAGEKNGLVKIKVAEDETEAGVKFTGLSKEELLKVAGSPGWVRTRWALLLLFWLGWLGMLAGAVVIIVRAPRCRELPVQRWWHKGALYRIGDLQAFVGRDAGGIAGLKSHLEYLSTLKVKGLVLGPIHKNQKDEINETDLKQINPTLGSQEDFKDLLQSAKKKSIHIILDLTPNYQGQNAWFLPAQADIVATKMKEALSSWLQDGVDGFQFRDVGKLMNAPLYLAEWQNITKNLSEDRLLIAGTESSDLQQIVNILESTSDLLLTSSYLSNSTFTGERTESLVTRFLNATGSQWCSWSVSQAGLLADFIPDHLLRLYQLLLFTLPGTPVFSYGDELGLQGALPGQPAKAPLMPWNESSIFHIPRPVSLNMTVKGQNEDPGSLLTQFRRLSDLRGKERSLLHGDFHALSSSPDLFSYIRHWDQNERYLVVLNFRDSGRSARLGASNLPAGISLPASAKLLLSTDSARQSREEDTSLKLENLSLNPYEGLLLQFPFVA
Text: The IgG positive hybridoma supernatants (898 in total) were initially screened for their ability to differentially bind CHO cells overexpressing human or mouse CD98hc cells compared to CHO parental cells by FACS. Overexpressing cells were harvested, washed, and labeled with various concentrations and combinations of CellTrace cell proliferation dyes CFSE and Violet (ThermoFisher, Cat #C34554 and Cat #34557, respectively) to create uniquely barcoded cell populations. Barcoded cells (5×10⁴ of each cell population) were aliquoted into 96-well U-bottom plates and incubated with 50 μl of hybridoma cell culture supernatant or 1 μg/ml of commercially available purified mouse anti-human CD98hc monoclonal antibody (Sigma Aldrich, Cat #SAB 4700503) and rat anti-mouse CD98hc antibody (Bio-Rad Laboratories, Hercules, CA, Cat #MCA2684) on ice for 30 minutes. […] Following this secondary antibody incubation, the cells were again washed twice with ice-cold FACS buffer and resuspended in a final volume of 50 μl of FACS buffer containing 0.25 μl/well propidium iodide (BD Biosciences, Cat #556463). Binding intensity on cells was analyzed using the FACS Canto system (BD Biosciences), with sorting gates drawn to exclude dead (i.e., propidium iodide-positive) cells. For each barcoded cell population, the ratio of APC Mean Fluorescence Intensity (MFI) divided by secondary antibody MFI was calculated for each anti-CD98hc hybridoma supernatant tested and reported in Table 5.

[2] = target: T2, Full length human CD98hc on CHO cells (human); experiment: FACS, hybridoma supernatant
T2 construct: CHO cells stably overexpressing it; also called CHO-human CD98hc; CHO-huCD98hc
T2 chain: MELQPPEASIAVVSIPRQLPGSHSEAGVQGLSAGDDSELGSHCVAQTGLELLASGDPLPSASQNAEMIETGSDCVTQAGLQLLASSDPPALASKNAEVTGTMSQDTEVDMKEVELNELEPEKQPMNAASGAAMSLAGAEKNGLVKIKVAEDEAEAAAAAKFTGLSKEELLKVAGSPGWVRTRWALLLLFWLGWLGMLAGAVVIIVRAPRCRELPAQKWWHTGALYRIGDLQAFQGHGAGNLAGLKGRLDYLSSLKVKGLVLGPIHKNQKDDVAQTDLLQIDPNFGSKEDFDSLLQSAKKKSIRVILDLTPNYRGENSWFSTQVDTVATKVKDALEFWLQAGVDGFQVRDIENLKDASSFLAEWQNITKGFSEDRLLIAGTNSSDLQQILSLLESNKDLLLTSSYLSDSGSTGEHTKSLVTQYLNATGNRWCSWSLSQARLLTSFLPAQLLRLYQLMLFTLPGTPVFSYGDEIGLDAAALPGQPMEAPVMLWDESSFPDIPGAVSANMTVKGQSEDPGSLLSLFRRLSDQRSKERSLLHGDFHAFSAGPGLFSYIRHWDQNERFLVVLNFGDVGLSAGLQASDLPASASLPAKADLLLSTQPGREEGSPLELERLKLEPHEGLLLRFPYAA

[3] = target: T1, Full length mouse CD98hc on CHO cells; experiment: FACS, hybridoma supernatant; remark: listed apart in the source
[4] = target: T3, human CD98hc endogenously expressed on HCMEC/D3 cells (human); experiment: FACS, hybridoma supernatant
T3 construct: human brain endothelial cell line
T3 chain: T2 chain

muCD98hc ECD Avi-His = target: T4, muCD98hc ECD Avi-His (mouse, UniProt P10852 100-526); experiment: ELISA, hybridoma supernatant
T4 construct: biotinylated on the Avi tag where captured on streptavidin; also called Mouse CD98-AVI-His; Mouse CD98hc-AVI-His
T4 sequence: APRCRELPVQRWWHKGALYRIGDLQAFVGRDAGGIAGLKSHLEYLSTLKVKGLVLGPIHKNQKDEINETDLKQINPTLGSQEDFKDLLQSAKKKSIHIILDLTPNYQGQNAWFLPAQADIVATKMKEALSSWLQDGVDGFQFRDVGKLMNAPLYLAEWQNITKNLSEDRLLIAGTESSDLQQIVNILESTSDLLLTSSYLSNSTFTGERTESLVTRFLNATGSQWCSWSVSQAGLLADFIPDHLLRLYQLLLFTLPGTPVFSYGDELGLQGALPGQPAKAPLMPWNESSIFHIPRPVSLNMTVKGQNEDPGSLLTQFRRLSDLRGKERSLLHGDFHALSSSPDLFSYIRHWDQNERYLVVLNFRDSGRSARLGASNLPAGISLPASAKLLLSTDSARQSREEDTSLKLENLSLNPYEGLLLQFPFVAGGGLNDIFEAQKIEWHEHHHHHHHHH
Method: (§1) Briefly, 96-well polystyrene plates were coated with 5 μg/ml of streptavidin (Thermo Fisher, Cat #PI21125) in coating buffer (0.05M carbonate buffer, pH 9.6, Sigma, Cat #C3041) overnight at 4° C. Coated plates were then blocked with ELISA diluent (PBS+0.5% BSA+0.05% Tween20) for one hour. Blocking buffer was removed and human, cyno, or mouse Avi-His-tagged CD98hc and Avi-His-tagged human TfR polypeptides were added at 1 μg/ml in ELISA diluent and captured for 1 hour at room temperature. After washing three times with 300 μl of PBST (PBS+0.05% Tween20, Thermo 28352), the hybridoma cell culture supernatants or 1 μg/ml of commercially available purified mouse anti-human CD98hc monoclonal antibody (Sigma Aldrich, Cat #SAB 4700503) and rat anti-mouse CD98hc antibody (Bio-Rad Laboratories, Hercules, CA, Cat #MCA2684) were added (50 μl/well) to each well. After 30 minutes of incubation at room temperature, the plates were washed three times with 300 μl of PBST. […] After a final set of washes (3×300 μl in PBST), 50 μl/well of BioFx TMB substrate (Surmodics, Eden Praire, MN, Cat #TMBW-1000-01) was added to the wells. The reaction was then quenched after 5-10 mins with 50 μl/well of 2N sulfuric acid. The plates were read for absorbance at 450 nm on a SpectraMax M5 (Molecular Devices, Sunnyvale, CA) using SoftMax Pro software.

[5] = target: T5, Human TfR-AVI-His (control) (human, UniProt P02786 89-760); experiment: ELISA, hybridoma supernatant
T5 construct: control protein; also called Avi-His-tagged human TfR; human transferrin receptor
T5 sequence (P02786 89-760 limits assumed): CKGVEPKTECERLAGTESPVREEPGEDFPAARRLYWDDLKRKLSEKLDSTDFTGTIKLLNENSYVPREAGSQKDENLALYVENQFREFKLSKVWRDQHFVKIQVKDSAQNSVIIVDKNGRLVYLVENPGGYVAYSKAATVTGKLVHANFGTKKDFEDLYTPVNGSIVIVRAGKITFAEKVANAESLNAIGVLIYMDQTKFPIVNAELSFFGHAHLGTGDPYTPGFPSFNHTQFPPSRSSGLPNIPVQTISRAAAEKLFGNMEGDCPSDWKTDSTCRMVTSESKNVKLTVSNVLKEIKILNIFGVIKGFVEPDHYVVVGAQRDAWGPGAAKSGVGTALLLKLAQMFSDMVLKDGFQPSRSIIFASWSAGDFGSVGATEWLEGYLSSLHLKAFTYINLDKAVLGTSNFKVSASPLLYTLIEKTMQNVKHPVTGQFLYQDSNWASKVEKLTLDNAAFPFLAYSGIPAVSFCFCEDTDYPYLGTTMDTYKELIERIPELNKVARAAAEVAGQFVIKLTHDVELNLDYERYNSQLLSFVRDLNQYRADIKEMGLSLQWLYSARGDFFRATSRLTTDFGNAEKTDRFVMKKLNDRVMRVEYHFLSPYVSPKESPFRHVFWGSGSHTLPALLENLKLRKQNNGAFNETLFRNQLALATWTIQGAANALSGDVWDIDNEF
Method: as §1

huCD98hc ECD Avi-His = target: T6, huCD98hc ECD Avi-His (human, UniProt P08195 105-529); experiment: SPR, Biacore T200, anti-kappa capture
T6 construct: biotinylated on the Avi tag where captured on streptavidin; also called Human CD98-AVI-His; Human CD98hc-AVI-His
T6 sequence: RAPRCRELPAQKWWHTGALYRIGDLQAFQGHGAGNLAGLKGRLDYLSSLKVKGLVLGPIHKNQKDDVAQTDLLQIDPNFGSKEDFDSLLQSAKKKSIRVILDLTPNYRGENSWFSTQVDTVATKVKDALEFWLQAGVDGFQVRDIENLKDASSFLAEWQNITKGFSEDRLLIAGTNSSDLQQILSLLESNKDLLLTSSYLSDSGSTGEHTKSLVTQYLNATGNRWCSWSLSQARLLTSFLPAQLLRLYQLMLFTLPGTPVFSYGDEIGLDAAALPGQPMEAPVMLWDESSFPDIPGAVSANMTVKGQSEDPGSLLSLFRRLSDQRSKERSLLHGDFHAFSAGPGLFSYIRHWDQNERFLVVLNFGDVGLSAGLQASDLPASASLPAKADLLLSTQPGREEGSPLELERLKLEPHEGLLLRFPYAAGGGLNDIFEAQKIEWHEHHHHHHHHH
Method: (§2) Binding kinetics of 2+1 anti-CD98hc bispecific antibodies to recombinant human and cynomolgus CD98hc ECD Avi-His were evaluated using a Biacore T200 instrument (Global Life Sciences Solutions USA LLC, Marlborough, MA). The 2+1 anti-CD98hc bispecific antibodies were prepared by diluting to 50 μg/mL in running buffer HBS-EP+ (Teknova) with 0.5 mg/mL BSA (MP Biomedicals) and captured by a goat anti-human kappa polyclonal antibody (Southern Biotech) surface that was prepared according to the instrument manufacturer's recommendations. Two independent experiments were performed as follows, resulting in an N of between one and […] determinations for each antibody. Estimates of affinity were generated by injecting each analyte over captured antibody on Flowcell 2, 3, or 4. CD98hc ECD Avi-His analytes were diluted with running buffer, in a series of five, three-fold serial dilutions starting from 600 nM. Analytes were injected without regeneration, from lowest to highest concentration, for 5 minutes each, and dissociation was followed for 15 minutes. After each analyte injection series, antibodies were regenerated with 10 mM glycine pH 2.0 buffer (Cytiva). Data were processed and analyzed using Biacore T200 BiaEvaluation software (Cytiva).
(§3) The equilibrium dissociation constants (KD) were calculated from the fitted association and dissociation rate constants (k-on and k-off) for 2+1 anti-CD98hc bispecific antibodies of the present disclosure binding to human and cynomolgus CD98hc ECD Avi-His. For measurements with N>1, means and standard deviation were calculated and measurements for all samples were combined and graphed using GraphPad Prism.

Cyno CD98hc ECD Avi-His = target: T7, Cyno CD98hc ECD Avi-His (cynomolgus macaque, UniProt P08195 105-529 (human entry)); experiment: SPR, Biacore T200, anti-kappa capture
T7 construct: biotinylated on the Avi tag where captured on streptavidin; also called Cyno CD98-AVI-His; Cyno CD98hc-AVI-His
T7 chain: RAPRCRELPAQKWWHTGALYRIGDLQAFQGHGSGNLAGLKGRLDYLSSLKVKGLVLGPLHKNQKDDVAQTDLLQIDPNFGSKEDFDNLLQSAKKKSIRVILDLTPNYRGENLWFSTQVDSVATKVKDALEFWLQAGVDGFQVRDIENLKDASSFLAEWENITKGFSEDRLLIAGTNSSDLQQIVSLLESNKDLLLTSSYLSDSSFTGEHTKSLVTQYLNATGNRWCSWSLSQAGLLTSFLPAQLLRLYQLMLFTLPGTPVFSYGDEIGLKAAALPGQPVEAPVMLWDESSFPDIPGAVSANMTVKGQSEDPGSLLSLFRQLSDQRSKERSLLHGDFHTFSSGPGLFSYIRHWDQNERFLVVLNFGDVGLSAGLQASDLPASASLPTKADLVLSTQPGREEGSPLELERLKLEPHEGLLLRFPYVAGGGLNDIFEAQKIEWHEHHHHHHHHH
Method: as §2, §3

B2: CD98HC.04.047 (antibody, V domains shown)
VH: EVQLQESGPSLVKPSQTLSLTCSVTGDSITSGYWNWIRKFPGNKLEYMGYISYSGSTYYNPSLKGRVSITRDTSKNQYYLQLNSVTTEDTATYYCQRHVIYDYTWFAYWGQGTLVTVSA
VL: QIVLTQSPAIMSASPGEKVTISCSASSSVGYMYWLQQKPGSSPKPWIYRTSILASGVPARFSGSGSGTSYSLTISSMEAEDAATYYCQQYQSYPLTFGAGTKLELK
notes: hybridoma IgG
binding result [1]: no binding
MFI ratio over secondary antibody [3]: 1.2
OD450 (muCD98hc ECD Avi-His): 0.103
OD450 [5]: 0.0949

B4: CD98hc.04.064.1a (humanized, 2+1 format) (bispecific antibody)
scFv: QVQLVQSGAEVKKPGASVKVSCKASGYTFTSYWMNWVRQAPGQGLEWMGIIDPSDSETHYAQKFQGRVTMTVDKSTSTVYMELSSLRSEDTAVYYCARASYGKGYFDYWGQGTLVTVSSGGSEGKSSGSGSESKSTGGSDIVMTQSPDSLAVSLGERATINCKSSQSLLNNINQKNYLAWYQQKPGQPPKLLIYFASTRESGVPDRFSGSGSGTDFTLTISSLQAEDVAVYYCQQHYSSPFTFGGGTKVEIK
notes: tested as 2+1 bispecific (scFv on an IgG)
Kd (huCD98hc ECD Avi-His): 31 nM
Kd (Cyno CD98hc ECD Avi-His): 880 nM

B5: CD98hc.04.064.4a (humanized, 2+1 format) (bispecific antibody)
scFv: B4 scFv with H59N, M70S, T76I, V79A, S85R, E89D, A92V
notes: as for B4
Kd (huCD98hc ECD Avi-His): 34 nM
Kd (Cyno CD98hc ECD Avi-His): 430 nM

Results, then the binder that gave them:

binding result [1]: no binding
MFI ratio over secondary antibody [2]: 52
MFI ratio over secondary antibody [3]: 1.2
MFI ratio over secondary antibody [4]: 218
B1: CD98HC.04.054 (antibody, V domains shown)
VH: QVQLQQSAAELARPGASVKMSCETSGYTFTRYTMNWVKQRPGQGLDWIGYINPSSGYAEYNQKFRGKTTLTADKSSSTAYIQLNSLTSEDSAVYYCVRYDGNYVYWGQGTTLTVSS
VL: DIVMTQSQKFMSTSFGDRVDITCKASQNVGSAVAWYQQKPGQSPKLLIYSASNRYTGVPDRFTGSGSGTDFTLTINNMQSADLADYFCQQYNFYPLTFGAGTKLDLK
notes: hybridoma IgG

binding result [1]: no binding
MFI ratio over secondary antibody [3]: 1.2
OD450 (muCD98hc ECD Avi-His): 0.0984
OD450 [5]: 0.1
B3: CD98HC.04.065 (antibody, V domains shown)
VH: B2 VH with S56R, G65S
VL: B2 VL with G30H, L35F, A59D
notes: hybridoma IgG
